According to the supplement of paper PMC10065799, “High-throughput profiling of sequence recognition by tyrosine kinases and SH2 domains using bacterial peptide display” (eLife, 2023):

Assays:
AncSZ = experiment: phosphorylation enrichment, bacterial display (enrichment ratio); higher = better substrate or ligand; peptides without Tyr show the background
EPHB1 = EPHB1 (UniProt P54762); experiment: as above
EPHB2 = EPHB2 (UniProt P29323); experiment: as above
FGFR1 = FGFR1 (UniProt P11362); experiment: as above
FGFR1, sequence (P11362 whole entry, looked up): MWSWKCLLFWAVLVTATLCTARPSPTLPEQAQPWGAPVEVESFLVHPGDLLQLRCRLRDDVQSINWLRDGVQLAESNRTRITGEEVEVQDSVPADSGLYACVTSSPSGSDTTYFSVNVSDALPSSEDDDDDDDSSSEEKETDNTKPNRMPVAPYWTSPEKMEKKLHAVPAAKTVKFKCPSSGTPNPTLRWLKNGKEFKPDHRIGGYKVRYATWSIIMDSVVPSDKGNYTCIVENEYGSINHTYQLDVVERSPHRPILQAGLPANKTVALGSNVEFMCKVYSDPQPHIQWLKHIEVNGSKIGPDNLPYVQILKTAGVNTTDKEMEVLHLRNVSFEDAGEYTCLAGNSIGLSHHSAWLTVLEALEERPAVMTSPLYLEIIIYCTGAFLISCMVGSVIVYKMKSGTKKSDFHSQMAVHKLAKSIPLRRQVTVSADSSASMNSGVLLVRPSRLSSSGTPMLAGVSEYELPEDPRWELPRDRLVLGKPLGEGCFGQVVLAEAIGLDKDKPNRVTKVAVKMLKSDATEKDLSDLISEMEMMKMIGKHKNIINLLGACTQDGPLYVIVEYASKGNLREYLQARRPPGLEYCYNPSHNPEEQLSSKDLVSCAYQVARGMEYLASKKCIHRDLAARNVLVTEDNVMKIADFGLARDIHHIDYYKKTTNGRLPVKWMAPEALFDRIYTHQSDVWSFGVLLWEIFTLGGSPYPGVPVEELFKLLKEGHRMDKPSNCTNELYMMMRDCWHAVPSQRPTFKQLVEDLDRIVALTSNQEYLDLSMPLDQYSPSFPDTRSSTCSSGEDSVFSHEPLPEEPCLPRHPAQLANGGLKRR

FGFR3 = FGFR3 (UniProt P22607); experiment: as above
FGFR3, sequence (P22607 whole entry, looked up): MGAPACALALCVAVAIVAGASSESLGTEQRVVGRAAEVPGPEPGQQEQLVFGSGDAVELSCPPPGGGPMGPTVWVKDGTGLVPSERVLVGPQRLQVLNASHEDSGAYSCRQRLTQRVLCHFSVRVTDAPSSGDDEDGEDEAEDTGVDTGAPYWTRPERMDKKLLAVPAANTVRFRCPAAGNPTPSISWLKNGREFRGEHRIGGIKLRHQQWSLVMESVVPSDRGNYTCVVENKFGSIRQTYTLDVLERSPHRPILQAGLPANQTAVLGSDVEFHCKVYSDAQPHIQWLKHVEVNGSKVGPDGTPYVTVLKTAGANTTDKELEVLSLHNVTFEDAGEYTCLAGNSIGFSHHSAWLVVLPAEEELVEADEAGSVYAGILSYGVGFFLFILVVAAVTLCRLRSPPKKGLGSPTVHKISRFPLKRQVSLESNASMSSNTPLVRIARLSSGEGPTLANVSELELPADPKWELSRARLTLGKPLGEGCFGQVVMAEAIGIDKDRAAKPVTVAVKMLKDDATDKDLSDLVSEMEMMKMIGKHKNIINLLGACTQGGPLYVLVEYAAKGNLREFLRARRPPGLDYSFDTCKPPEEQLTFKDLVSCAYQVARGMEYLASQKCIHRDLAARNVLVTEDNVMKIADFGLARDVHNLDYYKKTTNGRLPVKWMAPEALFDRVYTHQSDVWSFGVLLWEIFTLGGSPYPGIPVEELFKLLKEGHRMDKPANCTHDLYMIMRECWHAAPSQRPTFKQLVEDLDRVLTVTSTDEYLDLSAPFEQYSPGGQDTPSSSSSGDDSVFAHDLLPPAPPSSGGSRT

Fer (mouse) = experiment: as above
Fes = Fes (UniProt P07332); experiment: as above
Fyn = Fyn (UniProt P06241); experiment: as above
Hck = Hck (UniProt P08631); experiment: as above
Jak2 = Jak2 (UniProt O60674); experiment: as above
Jak2, sequence (O60674 whole entry, looked up): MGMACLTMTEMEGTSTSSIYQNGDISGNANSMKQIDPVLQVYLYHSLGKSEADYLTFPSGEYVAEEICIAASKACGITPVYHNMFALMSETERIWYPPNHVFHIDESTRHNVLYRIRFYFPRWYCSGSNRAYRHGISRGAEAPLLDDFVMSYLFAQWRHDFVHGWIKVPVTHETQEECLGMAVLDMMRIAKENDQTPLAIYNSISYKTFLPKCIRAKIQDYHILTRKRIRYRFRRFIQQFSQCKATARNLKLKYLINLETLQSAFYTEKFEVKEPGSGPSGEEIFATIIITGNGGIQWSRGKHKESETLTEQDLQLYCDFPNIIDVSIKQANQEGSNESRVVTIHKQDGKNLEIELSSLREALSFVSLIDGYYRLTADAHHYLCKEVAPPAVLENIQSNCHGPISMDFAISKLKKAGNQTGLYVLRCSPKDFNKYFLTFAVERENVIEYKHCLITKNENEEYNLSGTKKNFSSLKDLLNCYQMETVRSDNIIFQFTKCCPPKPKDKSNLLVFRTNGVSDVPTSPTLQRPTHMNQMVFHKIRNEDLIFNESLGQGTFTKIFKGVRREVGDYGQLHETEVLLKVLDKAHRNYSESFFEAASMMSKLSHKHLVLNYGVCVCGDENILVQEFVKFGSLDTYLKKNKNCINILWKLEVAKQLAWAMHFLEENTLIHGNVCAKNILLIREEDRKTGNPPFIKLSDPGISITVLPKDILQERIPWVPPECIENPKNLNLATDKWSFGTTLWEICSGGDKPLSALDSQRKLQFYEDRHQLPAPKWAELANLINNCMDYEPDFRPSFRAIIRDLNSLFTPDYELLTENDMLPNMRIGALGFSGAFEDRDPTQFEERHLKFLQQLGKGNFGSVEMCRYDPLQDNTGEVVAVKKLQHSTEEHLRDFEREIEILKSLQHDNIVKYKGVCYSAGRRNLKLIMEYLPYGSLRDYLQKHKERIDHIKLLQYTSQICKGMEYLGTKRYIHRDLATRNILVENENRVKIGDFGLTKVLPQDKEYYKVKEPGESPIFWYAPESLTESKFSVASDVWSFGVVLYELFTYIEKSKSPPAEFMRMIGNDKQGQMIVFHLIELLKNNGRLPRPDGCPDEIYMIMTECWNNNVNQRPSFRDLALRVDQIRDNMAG

MERTK = MERTK (UniProt Q12866); experiment: as above
c-Abl (mouse) = experiment: as above
c-Src = experiment: as above
Grb2 SH2 = Grb2 SH2 (UniProt P62993); experiment: SH2 binding enrichment of the phosphorylated peptide, bacterial display (enrichment ratio); higher = better substrate or ligand; peptides without Tyr show the background
SHP2-C SH2 = experiment: as above
c-Src SH2 = experiment: as above
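Wherever SH2 binding enrichment of the phosphorylated peptide, bacterial display is given: peptide library displayed on the E. coli surface as eCPX fusions, selected cells deep-sequenced, score is each peptide's frequency after selection divided by its frequency in the input.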
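Wherever phosphorylation enrichment, bacterial display is given: 11-residue human phosphosite peptides and single-mutation variants displayed on the E. coli surface, counted by deep sequencing, each peptide's frequency after selection divided by its frequency in the unselected input library; frequency after pTyr selection over input frequency; kinase dosed for 20-30% of maximal phosphorylation in three min.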

EPHB2, sequence (P29323 whole entry, looked up): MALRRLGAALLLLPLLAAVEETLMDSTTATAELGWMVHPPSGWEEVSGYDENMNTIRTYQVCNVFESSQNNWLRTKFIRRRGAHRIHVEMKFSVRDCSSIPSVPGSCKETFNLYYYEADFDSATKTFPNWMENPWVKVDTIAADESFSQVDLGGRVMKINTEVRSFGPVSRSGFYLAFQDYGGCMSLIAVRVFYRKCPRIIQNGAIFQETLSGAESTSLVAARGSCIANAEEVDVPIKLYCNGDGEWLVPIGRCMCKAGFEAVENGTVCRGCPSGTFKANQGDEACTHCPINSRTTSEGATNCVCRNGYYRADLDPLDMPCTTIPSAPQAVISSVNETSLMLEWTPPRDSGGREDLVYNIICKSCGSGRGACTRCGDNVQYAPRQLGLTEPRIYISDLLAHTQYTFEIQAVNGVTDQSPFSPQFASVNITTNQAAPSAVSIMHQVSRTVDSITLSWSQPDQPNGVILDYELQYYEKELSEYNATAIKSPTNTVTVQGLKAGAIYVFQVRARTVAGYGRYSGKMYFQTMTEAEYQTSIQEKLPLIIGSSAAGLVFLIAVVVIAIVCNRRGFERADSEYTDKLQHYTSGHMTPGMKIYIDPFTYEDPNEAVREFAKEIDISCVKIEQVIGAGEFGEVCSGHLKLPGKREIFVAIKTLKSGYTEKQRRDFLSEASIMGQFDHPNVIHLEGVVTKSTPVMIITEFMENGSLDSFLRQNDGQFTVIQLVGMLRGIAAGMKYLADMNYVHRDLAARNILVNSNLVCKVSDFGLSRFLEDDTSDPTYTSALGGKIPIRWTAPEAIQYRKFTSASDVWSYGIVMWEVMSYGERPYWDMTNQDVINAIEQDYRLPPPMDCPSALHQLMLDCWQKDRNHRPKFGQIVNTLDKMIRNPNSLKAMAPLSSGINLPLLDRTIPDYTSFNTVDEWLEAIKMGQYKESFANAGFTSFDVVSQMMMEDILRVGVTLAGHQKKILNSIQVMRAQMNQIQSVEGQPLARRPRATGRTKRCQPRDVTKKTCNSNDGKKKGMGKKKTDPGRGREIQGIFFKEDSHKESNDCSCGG
EPHB1, sequence (P54762 whole entry, looked up): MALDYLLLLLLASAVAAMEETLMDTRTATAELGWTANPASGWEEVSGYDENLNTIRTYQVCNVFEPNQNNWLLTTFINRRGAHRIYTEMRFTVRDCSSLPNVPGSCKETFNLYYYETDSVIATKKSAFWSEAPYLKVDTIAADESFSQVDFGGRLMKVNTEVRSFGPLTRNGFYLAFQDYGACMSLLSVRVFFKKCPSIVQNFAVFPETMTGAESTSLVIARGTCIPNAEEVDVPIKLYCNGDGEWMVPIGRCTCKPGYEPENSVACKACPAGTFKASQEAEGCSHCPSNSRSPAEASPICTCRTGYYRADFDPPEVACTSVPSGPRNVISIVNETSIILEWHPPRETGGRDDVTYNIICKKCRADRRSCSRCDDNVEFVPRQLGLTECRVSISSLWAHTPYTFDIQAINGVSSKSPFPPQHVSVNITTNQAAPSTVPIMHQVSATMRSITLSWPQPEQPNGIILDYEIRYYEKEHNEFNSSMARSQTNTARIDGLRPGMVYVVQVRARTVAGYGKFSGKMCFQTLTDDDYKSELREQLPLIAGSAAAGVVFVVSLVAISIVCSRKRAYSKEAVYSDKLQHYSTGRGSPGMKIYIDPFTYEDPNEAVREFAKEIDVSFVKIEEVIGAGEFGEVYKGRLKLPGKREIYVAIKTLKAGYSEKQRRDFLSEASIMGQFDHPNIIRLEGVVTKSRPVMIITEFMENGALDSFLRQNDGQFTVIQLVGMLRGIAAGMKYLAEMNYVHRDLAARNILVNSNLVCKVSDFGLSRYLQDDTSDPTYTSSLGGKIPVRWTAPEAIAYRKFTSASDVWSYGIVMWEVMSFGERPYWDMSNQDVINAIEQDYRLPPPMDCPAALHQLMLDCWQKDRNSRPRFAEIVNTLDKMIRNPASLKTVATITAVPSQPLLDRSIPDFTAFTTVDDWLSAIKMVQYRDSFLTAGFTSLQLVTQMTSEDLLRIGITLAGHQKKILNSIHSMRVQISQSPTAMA

Sequence	SH2 binding enrichment (Grb2 SH2)	SH2 binding enrichment (SHP2-C SH2)	SH2 binding enrichment (c-Src SH2)	phosphorylation enrichment (AncSZ)	phosphorylation enrichment (EPHB1)	phosphorylation enrichment (EPHB2)	phosphorylation enrichment (FGFR1)	phosphorylation enrichment (FGFR3)	phosphorylation enrichment (Fer (mouse))	phosphorylation enrichment (Fes)	phosphorylation enrichment (Fyn)	phosphorylation enrichment (Hck)	phosphorylation enrichment (Jak2)	phosphorylation enrichment (MERTK)	phosphorylation enrichment (c-Abl (mouse))	phosphorylation enrichment (c-Src)
CGQDPYIRELG [UROS_Y19]	0.731	0.492	0.563	1.05	0.674	0.53	0.497	0.707	0.534	1.27	0.535	0.569	0.971	0.427	0.877	0.433
SISLRYEGRVY [ABL1_Y167]	1.11	0.881	0.685	1.07	0.606	0.563	0.484	0.776	0.546	1.09	0.513	0.506	1.06	0.428	0.803	0.394
KDQPDYKYQPR [SOX9_Y172_H169Q]	0.977	0.775	0.493	0.705	0.437	0.415	0.431	0.557	0.491	0.643	0.446	0.378	0.617	0.415	0.519	0.396
QEEPEYWDQET [HLA-A_Y83_G80E]	0.798	0.476	0.491	2.08	1.08	0.793	0.897	1.43	0.902	1.95	0.943	0.699	2	0.384	0.907	0.823
AGIKAYQSCLQ [ADGRA2_Y377_T375K]	0.767	0.64	0.57	0.786	0.583	0.55	0.453	0.572	0.424	0.983	0.383	0.537	0.841	0.558	0.85	0.55
GRPLSYWLTGC [LYZL6_Y140_F139S]	0.763	0.681	0.464	1.12	0.686	0.664	0.535	0.793	0.556	1.33	0.527	0.503	1.24	0.411	0.846	0.397
ILDEAYVMAIV [EGFR_Y764_S768I]	0.791	0.581	0.432	1.5	0.62	0.686	0.963	1.02	0.968	1.35	0.662	0.531	1.39	0.454	0.84	0.829
RIFDYYSARKT [STOX1_Y858_A863T]	0.701	0.849	0.534	0.531	0.521	0.439	0.503	0.48	0.441	0.665	0.402	0.982	1.18	1.37	0.259	0.473
DPADRYLIEQC [CDKL5_Y286_T288I]	0.88	0.67	0.544	1.19	0.626	0.682	0.587	0.777	0.511	1.32	0.51	0.556	1.06	0.467	0.903	0.518
DLSEVYKPRRK [CCDC93_Y176]	0.414	0.481	0.315	0.761	0.513	0.454	0.352	0.575	0.521	0.623	0.579	0.407	0.574	0.634	0.59	0.573
FLAVGDHKPHI [IDS_Y225_Y225D]	0.824	0.857	0.478	0.431	0.375	0.422	0.384	0.35	0.197	0.462	0.433	0.379	0.41	0.271	0.365	0.327
VNFDYYTVNLG [GFPT1_Y367_D366Y]	1.04	1.46	0.741	5.81	6.6	5.41	15.6	14.5	6.01	1.25	5.83	4.22	9.69	4.02	1.36	4.7
LYNQDYPIHCV [GATM_Y227_S231C]	0.902	0.689	0.638	0.811	0.614	0.592	2.66	1.64	0.632	0.954	0.639	0.767	0.754	0.463	0.625	0.558
SGSIHYSRVPR [GLB1_Y57]	0.734	0.824	0.861	0.629	0.542	0.436	0.772	0.578	0.535	0.763	0.605	0.529	0.772	0.64	0.716	0.677
KKGMIYGGGGG [PSME1_Y249_T244K]	0.766	0.632	0.666	0.467	0.3	0.363	0.407	0.359	0.365	0.495	0.388	0.466	0.487	0.381	0.447	0.442
TDECEYDELIV [TGM1_Y136_Y134C]		0.29	0.139	1.41	1.09	0.842	0.57	0.865	1.61	1.13	2.06	1.8	0.788	0.604	0.742	0.529

The next lines start with results.

SH2 binding enrichment (Grb2 SH2)	SH2 binding enrichment (SHP2-C SH2)	SH2 binding enrichment (c-Src SH2)	Sequence	phosphorylation enrichment (AncSZ)	phosphorylation enrichment (EPHB1)	phosphorylation enrichment (EPHB2)	phosphorylation enrichment (FGFR1)	phosphorylation enrichment (FGFR3)	phosphorylation enrichment (Fer (mouse))	phosphorylation enrichment (Fes)	phosphorylation enrichment (Fyn)	phosphorylation enrichment (Hck)	phosphorylation enrichment (Jak2)	phosphorylation enrichment (MERTK)	phosphorylation enrichment (c-Abl (mouse))	phosphorylation enrichment (c-Src)
0.863	0.514	0.86	QSSALYEDCYL [ASS1_Y83_R86C]	1.82	12.4	7.55	0.788	1.02	16.9	2.95	3	1.84	1.5	3.43	1.35	3.61
0.921	0.657	0.444	SKNYTYIWWLN [PSG4_Y271]	1.09	0.582	0.58	0.589	0.77	0.638	1.14	0.343	0.4	1.09	0.332	0.676	0.273
0.789	0.602	0.479	ARGTRYRYVSQ [UCN3_Y95]	0.534	0.39	0.461	0.42	0.483	0.493	0.637	0.492	0.469	0.437	0.529	0.608	0.572
0.888	0.682	0.556	CRIELYRIVES [IGFBP1_Y181_V183I]	1.21	1.82	0.616	0.422	0.837	0.579	1.49	0.455	0.548	1.28	0.451	0.991	0.53
0.805	0.682	0.859	AMCVRYDGVEV [ADAMTSL2_Y594]	1.19	0.764	0.735	0.7	0.781	0.791	1.26	0.583	0.644	1	0.49	0.817	0.542
0.86	0.589	0.817	LYIDSYEKDVA [PGM1_Y521]	1.81	0.816	1.15	0.895	1.14	0.798	1.5	0.77	0.659	1.24	0.717	0.45	0.69
0.89	0.689	0.51	ASNNPYFRDQA [RPGRIP1_Y846]	0.605	0.396	0.357	0.443	0.656	0.434	0.694	0.5	0.449	0.547	0.416	0.537	0.512
0.768	1	1.34	CTTIDYNYMCN [TP53_Y234_H233D]	1.3	0.715	0.643	0.957	0.831	0.464	0.93	0.558	0.598	0.838	0.449	0.682	0.488
0.594	0.766	0.49	ARLEYCENEKK [IRS1_Y47_Y47C]	0.795	0.552	0.475	0.786	0.702	0.464	0.815	0.567	0.421	0.687	0.449	0.486	0.486
0.853	0.881	1.93	MAFDRYAAICS [OR8H2_Y123_H120Y_YF]	1.15	0.893	0.998	0.548	0.641	0.597	1.3	0.479	0.76	1.2	0.889	0.95	0.576
1.04	0.722	0.519	VFPATYHPDHW [EFCAB12_Y544_YF]	0.677	0.678	0.383	0.467	0.542	0.347	0.792	0.469	0.421	0.629	0.385	0.604	0.458
0.841	0.544	0.695	MDDDQYALLTT [EFCAB6_Y675]	1.39	0.677	0.785	1.1	1.18	0.736	1.26	0.64	0.956	0.996	0.632	0.732	0.64
0.92	0.444	0.524	EKMWTYMPSAE [GRIA4_Y695_R697P]	0.768	0.504	0.474	0.448	0.623	0.396	0.841	0.377	0.509	0.652	0.363	0.538	0.329
